# Laboratory results taken from the supplement of paper PMC10724198.
# ± gives the standard deviation of the averaged measurements.
# System: Saccharomyces cerevisiae
# Assay: protein stability index of tFT-peptide fusion (C-terminal peptide) (PSI (0-1 scale)); higher = more stable (slower turnover)
# Conditions: genetic background: das1 deletion; temperature: 30 C
# Protocol: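 MPS profiling in S. cerevisiae of the yeast C-terminome library: the last 12 aa of each annotated ORF are fused to the C-terminus of a sfGFP-mCherry timer, after a GGGS linker. Cells are FACS-sorted into 8 mCherry/sfGFP bins and deep-sequenced. PSI runs from 0 (unstable) to 1 (stable); wild type and das1Δ backgrounds, two technical replicates each.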
row,Sequence,protein stability index
1,AQFKEYLYQNDF [HAM1 C-terminal 12 aa],0.704 ± 0.01
2,AQGEKDAAATAN [TOM22 C-terminal 12 aa],0.677 ± 0.019
3,ARKFWTEDNNNL [STE2 C-terminal 12 aa],0.72 ± 0.023
4,ARLVSNEPILLD [CWC23 C-terminal 12 aa],0.725 ± 0.026
5,ARTALKRLIDDQ [MSA1 C-terminal 12 aa],0.692 ± 0.023
6,ARTKRLVQFEAR [RPC10 C-terminal 12 aa],0.6826 ± 0.0044
7,ASVRIFLYPSNI [RPL33A C-terminal 12 aa],0.7 ± 0.013
8,ATAKEWTKKYAV [UBC5 C-terminal 12 aa],0.7 ± 0.018
9,ATRKALETARSA [MRPL13 C-terminal 12 aa],0.718 ± 0.0076
10,ATSITSLGVKRA [AUR1 C-terminal 12 aa],0.702 ± 0.01
11,AVSVPRISSPMH [ICS3 C-terminal 12 aa],0.7029 ± 0.0038
12,AWDIKQTLDSLA [CHO2 C-terminal 12 aa],0.709 ± 0.023
13,AYTEVKAVRIKL [ALD6 C-terminal 12 aa],0.6745 ± 0.0043
14,CGVSWKSGVVKL [PXP2 C-terminal 12 aa],0.7093 ± 0.0022
15,CLFGMAWLSTIL [YIP4 C-terminal 12 aa],0.661 ± 0.015

# Same assay, conditions: genetic background: wild type; temperature: 30 C
row,Sequence,protein stability index
1,AAANILFSDHAD [RAD23 C-terminal 12 aa],0.733 ± 0.032
2,AAGVGSVHGINR [COY1 C-terminal 12 aa],0.6645 ± 0.0066
3,AAISFKEAPRSD [ANB1 C-terminal 12 aa],0.694 ± 0.036
4,AARPCLEGSVAP [YOR050C C-terminal 12 aa],0.6795 ± 0.0067
5,ADETVDFYVYDE [SWD2 C-terminal 12 aa],0.698 ± 0.06
6,AEFLGSFDELVL [EEB1 C-terminal 12 aa],0.719 ± 0.018
7,AEIISVRQVDQS [GIT1 C-terminal 12 aa],0.705 ± 0.051
8,AESDDKSDNYGA [PRP45 C-terminal 12 aa],0.717 ± 0.036
9,AETLLSQRSRDR [DNF2 C-terminal 12 aa],0.692 ± 0.048
10,AGFGCLDSIILY [GSH2 C-terminal 12 aa],0.732 ± 0.038
11,AHRENIAFPPQF [YHR033W C-terminal 12 aa],0.744 ± 0.067
12,AIDTLLKMSSSD [SRL3 C-terminal 12 aa],0.674 ± 0.051
13,AIFLFLVGLFMK [UBC6 C-terminal 12 aa],0.297 ± 0.017
14,AKAGSTPKFRTE [YNL050C C-terminal 12 aa],0.6555 ± 0.0053
15,AKDFLEKRGISK [PAM18 C-terminal 12 aa],0.705 ± 0.023
16,AKFDGHAKTCHI [YBR051W C-terminal 12 aa],0.70733 ± 5e-06
17,AKKTNKLALTHV [SEC26 C-terminal 12 aa],0.718 ± 0.038
18,ALAFSKIPSVFL [YMR153C-A C-terminal 12 aa],0.687 ± 0.0091
19,ALDKYLIEIHHW [NPR3 C-terminal 12 aa],0.728 ± 0.013
20,ALGRKTSNGGRI [MKS1 C-terminal 12 aa],0.724 ± 0.049
21,AMSARKLSAARK [PCH2 C-terminal 12 aa],0.666 ± 0.025

row,Sequence,protein stability index
1,ANLVYMKADVFC [HTD2 C-terminal 12 aa],0.61 ± 0.066
2,ANTDKNNNPPGN [SNG1 C-terminal 12 aa],0.751 ± 0.07
3,APHVLNDLLLKF [PGA1 C-terminal 12 aa],0.666 ± 0.017
4,APRKEILACSDL [YOR392W C-terminal 12 aa],0.665 ± 0.04
5,AQAEVIRGLQSL [CAP2 C-terminal 12 aa],0.672 ± 0.03
6,AQFKEYLYQNDF [HAM1 C-terminal 12 aa],0.697 ± 0.022
7,AQGEKDAAATAN [TOM22 C-terminal 12 aa],0.6591 ± 0.0032
8,ARKFWTEDNNNL [STE2 C-terminal 12 aa],0.691 ± 0.039
9,ARLVSNEPILLD [CWC23 C-terminal 12 aa],0.704 ± 0.053
10,ARTALKRLIDDQ [MSA1 C-terminal 12 aa],0.698 ± 0.025
11,ARTKRLVQFEAR [RPC10 C-terminal 12 aa],0.7169 ± 0.007
12,ASVRIFLYPSNI [RPL33A C-terminal 12 aa],0.697 ± 0.017
13,ATAKEWTKKYAV [UBC5 C-terminal 12 aa],0.729 ± 0.045
14,ATRKALETARSA [MRPL13 C-terminal 12 aa],0.728 ± 0.036
15,ATSITSLGVKRA [AUR1 C-terminal 12 aa],0.688 ± 0.026
16,AVSVPRISSPMH [ICS3 C-terminal 12 aa],0.73 ± 0.028
17,AWDIKQTLDSLA [CHO2 C-terminal 12 aa],0.697 ± 0.038
18,AYTEVKAVRIKL [ALD6 C-terminal 12 aa],0.69 ± 0.02
19,CGVSWKSGVVKL [PXP2 C-terminal 12 aa],0.716 ± 0.031
20,CLFGMAWLSTIL [YIP4 C-terminal 12 aa],0.623 ± 0.0079

# System: Saccharomyces cerevisiae
# Assay: as above
# Conditions: genetic background: wild type; temperature: 30 C
row,Sequence,protein stability index
1,WFIFTITSVAGL,0.0312 ± 0.023
2,WFLRLVGAVFAL,0.447 ± 0.027
3,WFVLYAEVMGFW,0.349 ± 0.0052
4,WGRAADRRRRLG,0.346 ± 0.025
5,WGRENLTRVKLE,0.372 ± 0.061
6,WILIGVRFSCFG,0.299 ± 0.0058
7,WISDRCPSVLCY,0.251 ± 0.015
8,WLPFFPLSLRGV,0.497 ± 0.2
9,WLWFVGCLAAPL,0.541 ± 0.07
10,WQGLSGSPILVI,0.402 ± 0.016
11,WQILVRLIDFYT,0.436 ± 0.0055
12,WSSWFLWVIFRL,0.348 ± 0.02
13,WSWCLDVVCFTS,0.471 ± 0.0059
14,WVGWVVVLGCVG,0.489 ± 0.013
15,WVRIIIKLRASL,0.315 ± 0.041
16,WVSFFILYCVYR,0.232 ± 0.03
17,WWADRLVGVCIV,0.491 ± 0.011
18,WYYTWKQLVMIV,0.0294 ± 0.022

row,Sequence,protein stability index
1,YARFWYSKAFIC,0.2 ± 0.013
2,YCILGSYRLCVG,0.36 ± 0.0049
3,YCSIQIQLVYGI,0.424 ± 0.023
4,YFFVCYFSLLVF,0.177 ± 0.0081
5,YFYIRLGIAYMM,0.275 ± 0.027
6,YILRLMMEGICL,0.4198 ± 0.0029
7,YLFFVCLHLKAG,0.302 ± 0.044
8,YLRVRRPGSALV,0.654 ± 0.23
9,YNKIRNNEKKMT,0.36 ± 0.017
10,YPSCPINFICLC,0.417 ± 0.035
11,YRNVLLVLNYWS,0.491 ± 0.0064
12,YSIHYLRFFSLF,0.133 ± 0.034
13,YSMLGKLVRLVT,0.285 ± 0.033
14,YVCLVWHRNFFS,0.259 ± 0.0039
15,YVSSFSLVVLLS,0.228 ± 0.029
16,YVVCFFFKLFYF,0.382 ± 0.046
17,YVVYLQVCWMRS,0.227 ± 0.0044
